This is an account of results in patent publication US20140341938A1.

The assay concerns the target SIINFEKL:K^b complex (SIINFEKL complexed to H-2K^b) on LK^b cells (murine) (UniProt P01901). Kind of assay: cell-based or functional assay.
UniProt P01901, sequence (P01901 22-369, one chain of several): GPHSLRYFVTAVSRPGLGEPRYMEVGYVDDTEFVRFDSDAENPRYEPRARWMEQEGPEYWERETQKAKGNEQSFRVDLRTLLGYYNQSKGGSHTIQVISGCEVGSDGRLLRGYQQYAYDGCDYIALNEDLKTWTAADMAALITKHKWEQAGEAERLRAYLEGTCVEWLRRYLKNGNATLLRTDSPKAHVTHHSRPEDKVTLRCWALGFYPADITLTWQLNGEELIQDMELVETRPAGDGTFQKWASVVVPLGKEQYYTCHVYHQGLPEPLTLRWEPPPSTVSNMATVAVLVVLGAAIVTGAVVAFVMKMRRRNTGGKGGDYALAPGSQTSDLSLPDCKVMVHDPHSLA

In the case of “T cell receptor of the SIINFEKL:Kb-specific T hybridoma B3Z (TCR)”, the β-galactosidase measured with a luminescent substrate after overnight co-incubation of SIINFEKL-pulsed LK^b cells with B3Z; limit of detection given as the peptide pulse concentration is 5 ng/mL.
